Measurements taken from patent US7786356B2, “Method for the production of calendic acid, a fatty acid containing delta 8,10,12 conjugated double bonds and related fatty acids having a modification at the delta 9 position” (E.I. du Pont de Nemours and Company, priority 1999, dated 2010).

Experiments:
Assay type in all cases: cell-based
[1] = test system: Saccharomyces cerevisiae INVSc1 cells; test: Expression of CalFad2-1 and CalFad2-2 in Saccharomyces cerevisiae; conditions: cells grown in media containing 2 mM linoleic acid, 4 days at 16° C.; (w/w) of total fatty acids
Excerpt: The Calendula officinalis clones CalFad2-1 and CalFad2-2 were digested with the restriction enzymes EcoRI and XhoI. The resulting DNA fragments containing the entire cDNA inserts were purified by agarose gel electrophoresis. The purified cDNAs were ligated into the EcoRI and XhoI sites of the Saccharomyces cerevisiae expression vector pYES2 (Invitrogen) using T4 DNA ligase (New England Biolabs). The resulting plasmids pYes2/CalFad2-1 and pYes2/CalFad2-2 were introduced into Saccharomyces cerevisiae INVSc1 (Invitrogen Corp.) cells by lithium acetate-mediated transformation [Sherman F, Fink G R, Hicks J B, Methods in Yeast Genetics: A Laboratory Course Manual, Cold Spring Harbor Lab. Press, Plainview, N.Y. (1987)]. Transformed cells were selected for their ability to grow in the absence of uracil. […] In cells grown in media containing linoleic acid, calendic acid (18:3Δ^8trans,10trans,12cis) was detected in amounts of up to 2.9% (w/w) of the total fatty acids of cultures expressing CalFad2-1 (FIG. 3) and in amounts of up to 0.2% of the total fatty acids of cultures expressing CalFad2-2. […] No calendic acid was detected in cultures harboring the expression vector without a cDNA insert or in cells grown in the absence of exogenous linoleic acid. […]

somatic soybean embryos [2] = test: Production of calendic acid in somatic soybean embryos expressing CalFad2-1 or CalFad2-2; conditions: single somatic embryos
Excerpt: The open-reading frames of these cDNAs were amplified by PCR in order generate the appropriate flanking restriction enzyme sites for cloning into the soybean expression vector. The oligonucleotide primers used for amplification of the CalFad2-1 open-reading frame were: 5′-ttgcggccgc[…]-3′ (sense, SEQ ID NO:18) and 5′-ttgcggccg[…]-3′ (antisense, SEQ ID NO:19). The oligonucleotide primers used for amplification of the CalFad2-2 coding sequence were: 5′-agcggccgcTATACCATGGGCAAG-3′ (sense, SEQ ID NO:20) and 5′-tgcggccgcTATGTTAAACTTC-3′ (antisense, SEQ ID NO:21). [Note: The sequences shown in lower case contain an added NotI site along with additional bases to facilitate restriction enzyme digestion.] The template was the cDNA corresponding to either EST ecs1c.pk009.n14 (CalFad2-1) or EST ecs1c.pk08.a24 (CalFad2-2), and Pfu polymerase (Stratagene) was used for the amplification reactions. The resulting PCR products were subcloned into the intermediate vector pCR-Script AMP SK(+) (Stratagene) according to the manufacturer's protocol. The amplified CalFad2-1 and CalFad2-2 coding sequences were then released with NotI digestion and then subcloned into the corresponding site of the soybean expression vector pKS67.
The PCR amplified coding sequences of CalFad2-1 and CalFa2-2 were fused with the β-conglycinin promoter and phaseolin termination sequences in vector pKS67 was transformed into somatic soybean embryos as follows. To induce somatic embryos, cotyledons, 3-5 mm in length dissected from surface sterilized, immature seeds of a soybean cultivar A2872 or JACK-910 were cultured in the light or dark at 26° C. on an appropriate agar medium for 6-10 weeks. Somatic embryos that produce secondary embryos were then excised and placed into a suitable liquid medium. After repeated selection for clusters of somatic embryos that multiplied as early, globular staged embryos, the suspensions were maintained as described below.
Soybean embryogenic suspension cultures were maintained in 35 mL liquid media on a rotary shaker, 150 rpm, at 26° C. with florescent lights on a 16:8 hour day/night schedule. Cultures were subcultured every two weeks by inoculating approximately 35 mg of tissue into 35 mL of liquid medium.
Soybean embryogenic suspension cultures were then transformed with the vector pKS67 containing the coding sequence for CalFad2-1 and CalFad2-2 by the method of particle gun bombardment (Klein et al. (1987) Nature (London) 327:70, U.S. Pat. No. 4,945,050). A Du Pont Biolisticä PDS1000/HE instrument (helium retrofit) was used for these transformations.
To […] of a 60 mg/mL […] gold particle suspension were added (in order): 5 mL DNA (1 mg/mL), 20 ml spermidine (0.1 M), and […] CaCl2 (2.5 M). The particle preparation was then agitated for three minutes, spun in a microfuge for 10 seconds and the supernatant removed. The DNA-coated particles were then washed once in 400 mL 70% ethanol and resuspended in 40 mL of anhydrous ethanol. The DNA/particle suspension was sonicated three times for one second each. Five mL of the DNA-coated gold particles was then loaded on each macro carrier disk.
Approximately 300-400 mg of a two-week-old suspension culture was placed in an empty 60×15-mm petri dish and the residual liquid removed from the tissue with a pipette. For each transformation experiment, approximately 5 to 10 plates of tissue were bombarded. Membrane rupture pressure was set at 1100 psi and the chamber was evacuated to a vacuum of 28 inches mercury. The tissue was placed approximately 3.5 inches away from the retaining screen and bombarded three times. Following bombardment, the tissue was divided in half and placed back into liquid and cultured as described above.
Five to seven days post bombardment, the liquid media was exchanged with fresh media, and eleven to twelve days post bombardment with fresh media containing […] hygromycin. This selective media was refreshed weekly. […]

somatic soybean embryos [3] = test: Production of dimorphecolic acid in transgenic somatic soybean embryos expressing DMFad2-1 and/or DMFad2-2
Excerpt: Initially, the open-reading frames of cDNAs for DMFad2-1 and DMFad2-2 were amplified by PCR using Pfu polymerase (Stratagene) to generate the appropriate restriction enzyme sites for cloning into the soybean expression vector. For amplification of the open-reading frame of the DMFad2-1 cDNA, EST dms2c.pk006.d7 (SEQ ID NO: 10 for the nucleotide sequence, and SEQ ID NO:11 for the polypeptide translation product) was used as the template, and the oligonucleotide primers were: 5′-tatgcggccgcAAATGGGAGCAGGAGGTTG-3′ (sense, SEQ ID NO:22) and 5′-tttgcggccgc[…]-3′ (antisense, SEQ ID NO:23). For amplification of the open-reading frame of the DMFad2-2 cDNA, EST dms2c.pk001.113 (SEQ ID NO:12 for the nucleotide sequence, and SEQ ID NO:13 for the polypeptide translation product) was used as the template, and the oligonucleotide primers were: 5′-tgcggccgc[…]-3′ (sense, SEQ ID NO:24) and 5′-tagcggccgcTGATTAATCAAGTCTTAG-3′ (antisense, SEQ ID NO:25). The nucleotides shown in lower case are not Dimorphotheca sequences, but instead encode an added NotI site along with additional bases to facilitate restriction enzyme digestion. The resulting PCR products were subcloned into the intermediate vector pCR-Script AMP SK(+) (Stratagene) according to the manufacturer's protocol. […]
The expression constructs containing the DMFad2-1 and DMFad2-2 coding sequences in vector pKS67 were transformed into somatic soybean embryos using the biolistic method as described in Example 10. […] The fatty acid compositions of the resulting transgenic soybean embryos were then assessed for the presence of novel fatty acid structures. […] The resulting transgenic soybean embryos selected for hygromycin resistance were analyzed for alterations in fatty acid content relative to untransformed embryos. […] The recovered fatty acid methyl esters and derivatives were then analyzed using a Hewlett-Packard 6890 chromatograph fitted with an Omegawax 320 column (30 m×0.32 mm inner diameter; Supelco). […] Fatty acid methyl esters were also analyzed by GC-MS an HP6890 interfaced with a HP5973 (Hewlett-Packard) mass selective detector. […]

[4] = n = 5, ± standard deviation, weight % of total fatty acids

B1: CalFad2-2: Calendula officinalis fatty acid modifying enzyme (cDNA SEQ ID NO:3, protein SEQ ID NO:4) forming conjugated double bonds at delta-9 position (protein, listed as Calendula officinalis)
chain: MGKAASAKKVLERVPISKPPFEYNDLKKAVPPHCFSRPLSRSLYFLFHDIIVTCILFYVASNYIHMLPRFLSCIVWPVYWISQGVFLGRLWMIGHECGHHSFSNYRWVDDTVGFLIHTATLTPYFSFKYSHRNHHAHTNSMEYDEVHIPKRKSEALYFEFLGNNPIGLMITMLCKLTFGYAAYIMFNYTGKKHKSGGLASHFYPQSPLFNDSERNHVLFSDIGICIVLYACYRIVTVTGAMPAFYVYGIPWVIMSAILFAATYLQHTHPSIPHYDTTEWNWLRGALSTIDRDLGFFNMNKTHYHVIHHLFPVIPEYHAQEATEAIKPILGQYYKYDGTPFLKALWREMKECIYVESDEGQKKQGIYWFKNKT
[1]
  calendic acid (18:3Δ8trans,10trans,12cis), amount of the total fatty acids: up to 0.2%
Somatic soybean embryos [2]; n = 5, weight % of total fatty acids
  Other, Fatty Acid Weight %: ≦1.7 Weight %
Somatic soybean embryos [2]; [4]
  16:0, Fatty Acid Weight %: 12.3 ± 1.1 Weight %
  18:0, Fatty Acid Weight %: 3.3 ± 0.5 Weight %
  18:1, Fatty Acid Weight %: 8.6 ± 2.1 Weight %
  18:2, Fatty Acid Weight %: 38.2 ± 3.4 Weight %
  18:3, Fatty Acid Weight %: 17.7 ± 3.5 Weight %
  Calendic Acid, Fatty Acid Weight %: 18.1 ± 3.6 Weight %

B2: DMFad2-2: Dimorphotheca sinuata Δ-9 hydroxy-conjugase (SEQ ID NO:12/13) converting trans-linoleic acid to dimorphecolic acid (protein, listed as Dimorphotheca sinuata)
chain: MGASEEMKVLERVPVSKPPFEYNDLKKAVPPHCFTRSLSLSFYYLFYDLIKVCILFYVASKYIPMLPYSLSCIVWPLYWFFQGAFLGRLWMIGHECGHHSFSNYRWLDDTVGFLVHTATLTPYFSFKYSHRNHHAHTNSLEYDEVHVPKIRKFKSEHLYSEFLTNNPFGLVVNMVFELTFGYPSYLIFNYSGRKLTQAGFASHLYPQSPIFNDSERNHVFFSDVGICIVLYALYRIAIAKGAMLVLYVYGLPWVVMSAFIFSLTYLQHTHPSIPHYDSTEWNWLRGALSSIDRELAGAFNIKKTHYHVVHHLFPFIPEYHAHDATEALKPILGPYYKYDGTPFYKALWREMKDCLYVESDDGPNKTGVYWFKTKT
Somatic soybean embryos [3]; "DMFad2-2 alone" transformants
  dimorphecolic acid accumulation: less than 0.1%
Somatic soybean embryos [3]; embryo extracts of FIG. 9 panels B and C
  18:2Δ9cis,12trans in extracts of somatic soybean embryos (FIG. 9): lacked detectable amounts
Somatic soybean embryos [3]; experiment MSE 229, GC-MS selected ion 225 m/z
  dimorphecolic acid isomers, share of the total fatty acids: < 0.1%
